From the Human Domainome abundance scans (Beltran et al. 2025)

B1: Steroid hormone receptor ERR2, residues 100 to 176; numbered along this chain, O95718 (parent)
chain: KRLCLVCGDIASGYHYGVASCEACKAFFKRTIQGNIEYSCPATNECEITKRRRKSCQACRFMKCLKVGMLKEGVRLD

Variants of: B1
Assay: abundance fitness (aPCA) (normalised: wild type 0, dead -1); higher = more abundant; growth selection in yeast, the domain comes from the species named
Conditions: Homo sapiens

Abundance fitness, by site and new letter:
R52: Y -0.452, L 0.099, M -0.084, N -0.156, A -0.037, T 0.039, D -0.242, G 0.062, K -0.115, E 0.136, P -0.339, V -0.003, C -0.86, F -0.056, Q 0.128, H -0.627, S -0.155, W -0.043
C46: Y -0.59, R -0.704, M -0.557, Q -0.834, T -0.766, W -0.733, P -0.796, V -0.615, S -0.539, N -0.735
K50: I 0.112, N 0.071, E 0.224, A 0.126, V 0.118, D -0.055, L -0.088, Q 0.142, F 0.047, G -0.102, M 0.098, C -0.51, T 0.019, Y -0.128
C59: N -0.711, V -0.576, P -0.688, Q -0.891, F -0.451, L -0.873, S -0.887, R -0.755, W -0.684, M -0.631, I -0.542, A -0.686, D -0.513, K -0.483, H -0.545, Y -0.745, T -0.872, E -0.704
T49: I -0.281, S -0.164, H -0.523, G -0.041, E -0.003, Q -0.332, F -0.254, W -0.199, N 0.015, D 0.118, K -0.035, R -0.2, L -0.117, V -0.138, A 0.189, C -0.948, P -0.223
C56: L -0.76, P -0.666, E -0.627, T -0.691, R -0.872, D -1.17, S -0.847, F -0.936, I -0.679, G -0.718, W -0.722, M -0.9, N -0.845, H -0.599, Y -0.884, A -0.828
E47: Y -0.184, D 0.038, M -0.592, K -0.155, N -0.09, L -0.103, V -0.14, G -0.165, I -0.476, S -0.229, F -0.354, T -0.112, A -0.102, Q -0.083, C -0.172
F61: K -0.266, I -0.074, M 0, Q -0.257, R -0.487, T -0.759, E -0.892, G -0.602, S -0.509, P -1.29, D -1.06, W 0.125, N -0.541, A -0.444, C -1.06, V -0.269
A58: S -0.33, D -0.334, K -0.089, H -0.445, R -0.076, W -0.308, M -0.227, N 0.044, Y -0.347, T -0.518, G -0.205, F -0.377, E -0.235, C -0.346, Q -0.145, P -0.61, V -0.772, L -0.44
R51: Y -0.384, M 0.173, D -0.084, W 0.022, S -0.14, L -0.097, N -0.072, F -0.161, E 0.152, C -0.803, K -0.002, I -0.269, Q 0.119, A 0.002, H -0.08, T -0.04, G 0.033
R60: V -0.098, Y 0.279, P -0.798, M 0.108, E -0.764, L 0.183, D -0.828, Q 0.173
